In this assay the target is His×6-YY1(wt) (human, UniProt P25490 1-414). The experiment in a line: SPR. On the technique in general: Surface plasmon resonance follows binding to a sensor surface in real time, without labels.

B1: His×6-YY1(260–414) (domain or fragment)
chain: LPPGGIPGIDLSDPKQLAEFARMKPRKIKEDDAPRTIACPHKGCTKMFRDNSAMRKHLHTHGPRVHVCAECGKAFVESSKLKRHQLVHTGEKPFQCTFEGCGKRFSLDFNLRTHVRIHTGDRPYVCPFDGCNKKFAQSTNLKSHILTHAKAKNNQ
Take B1: binding was put at a Kd of 0.258 µM.

These data come from PMC8996997 (2022).
